Measured values taken from US20240400685A1 (Genmab, published 2024).
Each block holds one binder with its values, some of them ahead of it.

Target: human CD3 epsilon (human, UniProt P07766 23-207)
Assay: cell-based or functional assay

human CD3 epsilon, sequence (P07766 23-207): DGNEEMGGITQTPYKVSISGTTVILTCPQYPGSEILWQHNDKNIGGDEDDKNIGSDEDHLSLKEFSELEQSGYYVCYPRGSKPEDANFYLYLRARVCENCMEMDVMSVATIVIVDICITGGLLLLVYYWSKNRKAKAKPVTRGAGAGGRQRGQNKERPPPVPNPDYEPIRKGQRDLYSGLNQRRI

Biological Activity (rel %), T-cell activation assay: 6 rel %
B1: epcoritamab CIEX-HPLC pre-acidic 1 fraction (bispecific antibody, human IgG1, kappa, lambda)
heavy 1: not shown
light 1: not shown
heavy 2: EVQLVESGGGLVQPDRSLRLSCAASGFTFHDYAMHWVRQAPGKGLEWVSTISWNSGTIGYADSVKGRFTISRDNAKNSLYLQMNSLRAEDTALYYCAKDIQYGNYYYGMDVWGQGTTVTVSSASTKGPSVFPLAPSSKSTSGGTAALGCLVKDYFPEPVTVSWNSGALTSGVHTFPAVLQSSGLYSLSSVVTVPSSSLGTQTYICNVNHKPSNTKVDKRVEPKSCDKTHTCPPCPAPEFEGGPSVFLFPPKPKDTLMISRTPEVTCVVVAVSHEDPEVKFNWYVDGVEVHNAKTKPREEQYNSTYRVVSVLTVLHQDWLNGKEYKCKVSNKALPAPIEKTISKAKGQPREPQVYTLPPSREEMTKNQVSLTCLVKGFYPSDIAVEWESNGQPENNYKTTPPVLDSDGSFFLYSRLTVDKSRWQQGNVFSCSVMHEALHNHYTQKSLSLSPG
light 2: not shown
modifications: N103 deamidated (49.9 rel %); N106 deamidated (15.1 rel %); residual signal peptide SEA before N-terminal E1 (42.9 rel %); trace levels of a 3005a HC fragment around N103/N106

Biological Activity (rel %), T-cell activation assay: 90 rel %
B2: epcoritamab CIEX-HPLC acidic 3 fraction (bispecific antibody, human IgG1, kappa, lambda)
heavy 1: not shown
light 1: not shown
heavy 2: B1 heavy 2
light 2: not shown
modifications: N106 deamidated (76.0 rel %); trace levels of N103 deamidation

Biological Activity (rel %), T-cell activation assay: 28 rel %
B3: epcoritamab CIEX-HPLC acidic 2b fraction (bispecific antibody, human IgG1, kappa, lambda)
heavy 1: not shown
light 1: not shown
heavy 2: B1 heavy 2
light 2: not shown
modifications: N106 deamidated (61.4 rel %); N103 deamidated (5.8 rel %); non-consensus glycosylation G2F (3.4 rel %) and A1F at N106; residual signal peptide SEA before N-terminal E1 (12.1 rel %)

Biological Activity (rel %), T-cell activation assay: 9 rel %
B4: epcoritamab CIEX-HPLC acidic 1 fraction (bispecific antibody, human IgG1, kappa, lambda)
heavy 1: not shown
light 1: not shown
heavy 2: B1 heavy 2
light 2: not shown
modifications: N103 deamidated (85.3 rel %); residual signal peptide SEA before N-terminal E1 (13.0 rel %)

Biological Activity (rel %), T-cell activation assay: 25 rel %
B5: epcoritamab CIEX-HPLC acidic 2a fraction (bispecific antibody, human IgG1, kappa, lambda)
heavy 1: not shown
light 1: not shown
heavy 2: B1 heavy 2
light 2: not shown
modifications: N103 deamidated (29.6 rel %); N106 deamidated (22.6 rel %); non-consensus glycosylation A1F at N106 (15.0 rel %); residual signal peptide SEA before N-terminal E1 (26.9 rel %)
